# Laboratory results from the Immune Epitope Database (IEDB).
# How the values were obtained:
# [1] = target: HLA-A*69:01; experiment: IEDB peptide-MHC binding, purified MHC/direct/fluorescence; filed as Kd, often an IC50 or EC50 that approximates it; ≥ and ≤ were set here for values at or beyond the usual limits of such assays; settings: source organism: Cowpox virus
# [2] = target: HLA-A*01:01; experiment: as above; settings: source organism: Cowpox virus
# [3] = target: HLA-B*08:03; experiment: as above; settings: source organism: Variola virus
# [4] = target: HLA-B*48:01; experiment: as above; settings: source organism: Cowpox virus
# [5] = target: HLA-B*58:01; experiment: as above; settings: source organism: Cowpox virus
# [6] = target: HLA-B*15:17; experiment: as above; settings: source organism: Cowpox virus
# [7] = target: HLA-B*15:01; experiment: as above; settings: source organism: Cowpox virus
# [8] = target: HLA-B*57:01; experiment: as above; settings: source organism: Cowpox virus
# [9] = target: HLA-B*27:05; experiment: as above; settings: source organism: Cowpox virus
# [10] = target: HLA-A*26:01; experiment: as above; settings: source organism: Variola virus
# [11] = target: HLA-B*39:01; experiment: as above; settings: source organism: Cowpox virus
# [12] = target: HLA-B*46:01; experiment: as above; settings: source organism: Cowpox virus
# [13] = target: HLA-B*18:01; experiment: as above; settings: source organism: Cowpox virus
# [14] = target: HLA-B*08:01; experiment: as above; settings: source organism: Variola virus
# [15] = target: HLA-A*68:02; experiment: as above; settings: source organism: Cowpox virus
# [16] = target: HLA-A*02:01; experiment: as above; settings: source organism: Cowpox virus
# [17] = target: HLA-B*08:02; experiment: as above; settings: source organism: Variola virus
# [18] = target: HLA-B*40:01; experiment: as above; settings: source organism: Cowpox virus
# [19] = target: HLA-A*26:03; experiment: IEDB peptide-MHC binding, purified MHC/competitive/fluorescence; filed as Kd, often an IC50 or EC50 that approximates it; ≥ and ≤ were set here for values at or beyond the usual limits of such assays; settings: source organism: Vaccinia virus WR
# [20] = target: HLA-A*26:02; experiment: as above; settings: source organism: Vaccinia virus WR
# [21] = target: HLA-B*35:01; experiment: as above; settings: source organism: Vaccinia virus WR
# [22] = target: HLA-B*07:02; experiment: as above; settings: source organism: Vaccinia virus WR
sequence,measurement,setting,value
YHRPLTGYM,Kd,[1],≥ 20 µM
same,Kd,[2],≥ 20 µM
same,Kd,[3],≥ 20 µM
same,Kd,[4],≥ 20 µM
same,Kd,[5],≥ 20 µM
same,Kd,[6],≥ 20 µM
same,Kd,[7],≥ 20 µM
same,Kd,[8],≥ 20 µM
same,Kd,[9],≥ 20 µM
same,Kd,[10],≥ 20 µM
same,Kd,[11],≥ 20 µM
same,Kd,[12],≥ 20 µM
same,Kd,[13],≥ 20 µM
same,Kd,[14],≥ 20 µM
same,Kd,[15],≥ 20 µM
same,Kd,[16],≥ 20 µM
same,Kd,[17],≥ 20 µM
same,Kd,[18],≥ 20 µM
same,Kd,[19],≥ 20 µM
same,Kd,[20],≥ 20 µM
same,Kd,[21],≥ 20 µM
same,Kd,[22],0.302 µM
